Test [1] concerns the target T1, AIM-II expressed on HEK 293 EBNA cells (UniProt O43557 1-240).
T1 construct: whole, on cells
Nature of the test: flow cytometry on AIM-II-transfected HEK 293 EBNA cells. The protocol: For detecting Fc-fusion protein, cells were stained with FITC-conjugated goat anti-human IgG. […] The cells were analyzed by FACScan (Becton Dickinson).
(In flow cytometry, cells or beads pass a laser one at a time.)

The target in test [2] is T2, Fas receptor on human cells (Jurkat, HT-29) (human, UniProt P25445 26-335).
T2 sequence (looked up): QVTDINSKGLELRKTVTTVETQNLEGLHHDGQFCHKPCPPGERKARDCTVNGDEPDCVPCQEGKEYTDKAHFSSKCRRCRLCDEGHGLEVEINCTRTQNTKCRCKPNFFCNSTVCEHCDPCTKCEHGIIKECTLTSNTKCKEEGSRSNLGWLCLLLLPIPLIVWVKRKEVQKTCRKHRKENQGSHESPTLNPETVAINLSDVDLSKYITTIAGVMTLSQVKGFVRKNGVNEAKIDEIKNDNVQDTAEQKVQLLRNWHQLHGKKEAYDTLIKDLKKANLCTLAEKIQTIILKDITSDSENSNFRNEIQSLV
Nature of the test: cell-based or functional assay.

The target of test [3] is T3, Full length TNF-gamma-beta on the cell surface (human, UniProt O95150 1-251).
T3 construct: whole, on cells; also called TNF-gamma-beta expressing cells
T3 sequence (looked up): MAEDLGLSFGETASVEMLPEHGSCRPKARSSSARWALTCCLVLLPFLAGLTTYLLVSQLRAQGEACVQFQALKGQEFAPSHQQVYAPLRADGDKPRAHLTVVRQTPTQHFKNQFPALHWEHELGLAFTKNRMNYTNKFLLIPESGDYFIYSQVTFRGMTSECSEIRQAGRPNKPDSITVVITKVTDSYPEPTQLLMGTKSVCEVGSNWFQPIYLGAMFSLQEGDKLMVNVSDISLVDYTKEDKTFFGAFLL
Nature of the test: flow cytometry on HEK293F cells expressing full length TNF-gamma-beta.

For test [4], the target named is T4, Murine FasL expressed on murine L929 cells (mouse, UniProt P41047 1-279).
T4 sequence (looked up): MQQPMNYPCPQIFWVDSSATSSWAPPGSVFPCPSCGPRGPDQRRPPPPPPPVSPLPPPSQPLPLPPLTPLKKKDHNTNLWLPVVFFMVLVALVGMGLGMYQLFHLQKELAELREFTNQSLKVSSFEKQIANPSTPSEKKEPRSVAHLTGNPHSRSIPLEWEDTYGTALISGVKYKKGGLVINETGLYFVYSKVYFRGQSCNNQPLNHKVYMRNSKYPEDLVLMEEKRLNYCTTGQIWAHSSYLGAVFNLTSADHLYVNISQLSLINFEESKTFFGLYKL
Nature of the test: cell-based or functional assay.

The target in test [5] is T3, Full length TNF-gamma-beta on the cell …. Nature of the test: flow cytometry competition on TNF-gamma-beta expressing cells; competitor DR3-Fc.

T1 sequence (O43557 whole entry): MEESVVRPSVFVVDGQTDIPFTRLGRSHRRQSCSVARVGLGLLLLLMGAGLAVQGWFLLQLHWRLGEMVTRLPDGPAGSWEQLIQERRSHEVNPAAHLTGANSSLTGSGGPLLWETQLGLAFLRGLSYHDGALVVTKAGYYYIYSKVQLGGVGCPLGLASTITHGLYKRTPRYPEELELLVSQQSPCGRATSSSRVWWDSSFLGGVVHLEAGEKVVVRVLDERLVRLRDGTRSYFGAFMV

B1: HVEM/TR2-Fc (Fc fusion)
chain: LPSCKEDEYPVGSECCPKCSPGYRVKEACGELTGTVCEPCPPGTYIAHLNGLSKCLQCQMCDPAMGLRASRNCSRTENAVCGCSPGHFCIVQDGDHCAACRAYATSSPGQRVQKGGTESQDTLCQNCPPGTFSPNGTLEECQHQTKCSWLVTKAGAGTSSSHWV
notes: also called soluble form of HVEM/TR2-Fc; not shown: Fc portion
Regarding B1, the binding result in test [1] is “binds”.

B2: Soluble human FLAG-FasL (synthesized at HGS) (ligand, UniProt P48023 130-281, looked up, not shown: small tags and cut ends)
chain: QIGHPSPPPEKKELRKVAHLTGKSNSRSMPLEWEDTYGIVLLSGVKYKKGGLVINETGLYFVYSKVYFRGQSCNNLPLSHKVYMRNSKYPQDLVMMEGKMMSYCTTGQMWARSSYLGAVFNLTSADHLYVNVSELSLVNFEESQTFFGLYKL
B2: the “increase in apoptotic Jurkat cells over untreated controls (annexin FACS)” value in test [2] was approximately 7 fold.

B3: DcR1-Fc (Fc-fusion form of the extracellular domain) (Fc fusion, UniProt O14798 26-221, looked up)
chain: ATTARQEEVPQQTVAPQQQRHSFKGEECPAGSHRSEHTGACNPCTEGVDYTNASNNEPSCFPCTVCKSDQKHKSSCTMTRDTVCQCKEGTFRNENSPEMCRKCSRCPSGEVQVSNCTSWDDIQCVEEFGANATVETPAAEETMNTSPGTPAPAAEETMNTSPGTPAPAAEETMTTSPGTPAPAAEETMTTSPGTPA
notes: extracellular domain; not shown: Fc portion
For B3, in test [3], the binding result is listed as “no binding”.

B4: TNFR6 alpha-Fc (full length TNFR-6 alpha, amino acids 1-300 of SEQ ID NO:2, fused to an Fc domain of human IgG1) (Fc fusion, not shown: a dimerising Fc or GST)
chain: VAETPTYPWRDAETGERLVCAQCPPGTFVQRPCRRDSPTTCGPCPPRHYTQFWNYLERCRYCNVLCGEREEEARACHATHNRACRCRTGFFAHAGFCLEHASCPPGAGVIAPGTPSQNTQCQPCPPGTFSASSSSSEQCQPHRNCTALGLALNVPGSSSHDTLCTSCTGFPLSTRVPGAEECERAVIDFVAFQDISIKRLQRLLQALEAPEGWGPTPRAGRAALQLKLRRRLTELLGAQDGALLVRLLQALRVARMPGLERSVRERFLPVH
On to B4, for which the “potency relative to Fas-Fc, killing of A20 cells by murine FasL transfected L929 cells” value in test [4] came to 100 fold.

B5: TR6 (full-length human TNFR-6 alpha without Fc) (receptor)
chain: VAETPTYPWRDAETGERLVCAQCPPGTFVQRPCRRDSPTTCGPCPPRHYTQFWNYLERCRYCNVLCGEREEEARACHATHNRACRCRTGFFAHAGFCLEHASCPPGAGVIAPGTPSQNTQCQPCPPGTFSASSSSSEQCQPHRNCTALGLALNVPGSSSHDTLCTSCTGFPLSTRVPGAEECERAVIDFVAFQDISIKRLQRLLQALEAPEGWGPTPRAGRAALQLKLRRRLTELLGAQDGALLVRLLQALRVARMPGLERSVRERFLPVH
notes: Full-length cDNA (aa 1-300) expressed in Sf9 cells; also called TR6-non-Fc; TR6 non-Fc
Regarding B5, the “molar ratio (TR6 to DR3-Fc) at which no DR3-Fc binding was detected” value in test [5] amounted to 2 mol/mol.

B6: LTβR-Fc (Fc fusion, UniProt P36941 31-227, looked up)
chain: QAVPPYASENQTCRDQEKEYYEPQHRICCSRCPPGTYVSAKCSRIRDTVCATCAENSYNEHWNYLTICQLCRPCDPVMGLEEIAPCTSKRKTQCRCQPGMFCAAWALECTHCELLSDCPPGTEAELKDEVGKGNNHCVPCKAGHFQNTSSPSARCQPHTRCENQGLVEAAPGTAQSDTTCKNPLEPLPPEMSGTMLM
notes: also called LTbetaR-Fc; LTBR-Fc; not shown: Fc portion
As to B6, in test [1], the binding result is on record as “binds”.

B7: OPG-Fc (Fc-fusion form of the extracellular domain) (Fc fusion, UniProt O00300 22-194, looked up)
chain: ETFPPKYLHYDEETSHQLLCDKCPPGTYLKQHCTAKWKTVCAPCPDHYYTDSWHTSDECLYCSPVCKELQYVKQECNRTHNRVCECKEGRYLEIEFCLKHRSCPPGFGVVQAGTPERNTVCKRCPDGFFSNETSSKAPCRKHTNCSVFGLLLTQKGNATHDNICSGNSESTQK
notes: as for B3
Turning to B7, the binding result in test [3] is recorded as “no binding”.

The record behind these values is patent publication US20040013664A1 (published 2004).
